Key:
[1] = test system: hES cells (CyT49; passage 35); assay: Further differentiation to pancreatic endoderm and endocrine cells, real-time PCR at 10 days (Example 4); type: cell-based, human; conditions: definitive endoderm produced using Wnt3a at 50 or 75 ng/ml or GXV at 10 nM, FIG. 7
Description: Human ES cell cultures were maintained and differentiated substantially as described above in Example 1, and further differentiated to foregut endoderm (stage 2) and then onto pancreatic endoderm and pancreatic endocrine cells (stages 3 and 4). After 48 hours of differentiation to definitive endoderm (stage 1) the cells were briefly washed in PBS+/+ and then further differentiated in RPMI supplemented with 0.2% FBS, Insulin-Transferrin-Selenium (1:1000), Glutamax, penicillin/streptomycin, and 25 ng/mL KGF (R&D Systems) for 3 days. On the first day of stage 2, the culture also received TGF-beta inhibitor No. 4 (3-(6-Methylpyridin-2-yl)-4-(4-quinolyl)-1-phenylthiocarbamoyl-1H-pyrazole) at 2.5 uM (EMD Bioscience). After three days in stage 2 the cells were then differentiated for one day in DMEM with B27 supplement (1:100) containing all-trans retinoic acid (RA) at 0.2 uM and KAAD-cyclopamine at 0.25 uM. Following the single day of retinoid exposure, the cells were cultured in DMEM with B27 (1:100) containing noggin at 40 ng/ml. […]
However, in this instance, the stage 4 noggin treatment lasted for 4 days, as compared to 3 days in Example 2, and replicate samples were taken for real-time PCR analysis at a total of 10 days of differentiation, as compared to 9 days in Example 2.

[2] = test system: hES cells (CyT49; passage 35); assay: Differentiation of hES cells to definitive endoderm with activin A plus Wnt3a or GSK3 inhibitors, real-time quantitative PCR at 48 hours (Example 4); type: cell-based, human; conditions: with 100 ng/mL activin A; Wnt3a 25, 50 or 75 ng/mL; GSK3 inhibitor No.15 at 10 nM; FIG. 6A-B
Description: Undifferentiated hES cells (CyT49; passage 35) were maintained substantially as described in Example 1 above. Ten hES cell culture plates were then differentiated in RPMI (Mediatech) supplemented with Glutamax, penicillin/streptomycin, and varying concentrations of defined FBS (HyClone). FBS concentrations were 0% for the first 24 h and 0.2% for the second 24 h. Additionally, 0.1% BSA (Invitrogen/Gibco) was added on the first day only. All plates received 100 ng/mL activin A for both days. […] Replicate samples were collected from each culture condition at 48 hours after differentiation commenced and analyzed for relative gene expression using real-time quantitative PCR.

B1: Wnt3a: Wnt protein (R&D Systems) activating the Wnt signaling pathway (protein, UniProt P56704 19-352, looked up)
Protein Wnt-3a: SYPIWWSLAVGPQYSSLGSQPILCASIPGLVPKQLRFCRNYVEIMPSVAEGIKIGIQECQHQFRGRRWNCTTVHDSLAIFGPVLDKATRESAFVHAIASAGVAFAVTRSCAEGTAAICGCSSRHQGSPGKGWKWGGCSEDIEFGGMVSREFADARENRPDARSAMNRHNNEAGRQAIASHMHLKCKCHGLSGSCEVKTCWWSQPDFRAIGDFLKDKYDSASEMVVEKHRESRGWVETLRPRYTYFKVPTERDLVYYEASPNFCEPNPETGSFGTRDRTCNVSSHGIDGCDLLCCGRGHNARAERRREKCRCVFHWCCYVSCQECTRVYDVHTCK
- abundance of pancreatic endoderm and endocrine cell types (PDX1, PTF1A, NKX6-1 and NKX2-2 induction) [1]: much greater abundance
- expression levels of SOX17 and FOXA2 at 48 hours of differentiation as compared to the other GSK inhibitors [2]: substantially higher
